Measurements published in the Human Domainome abundance scans (Beltran et al. 2025).
± gives the uncertainty stated by the source.

B1: E3 ubiquitin-protein ligase TRIM36, residues 208 to 252; numbered along this chain, Q9NQ86 (parent)
chain: KILMCPEHETERINMYCELCRRPVCHLCKLGGNHANHRVTTMSSA
B2: GAS2-like protein 1, residues 209 to 276; numbered along this chain, Q99501 (parent)
chain: DELVREILGRCTCPDQFPMIKVSEGKYRVGDSSLLIFVRVLRSHVMVRVGGGWDTLEHYLDKHDPCRC

Variants of: B1
Test: abundance fitness (aPCA) (normalised: wild type 0, dead -1); higher = more abundant; growth selection in yeast, the domain comes from the species named
Settings: Homo sapiens

Abundance fitness, by site and new letter:
R38: P -0.011 ± 0.058; F -0.121 ± 0.1; D 0.05 ± 0.069; T 0.075 ± 0.062; N -0.002 ± 0.08; S 0.018 ± 0.073; G 0.108 ± 0.045; K -0.006 ± 0.071; M 0.008 ± 0.055; Q 0.024 ± 0.078; A 0.021 ± 0.049; V 0.036 ± 0.055; C 0.017 ± 0.067; Y -0.005 ± 0.093; I -0.11 ± 0.087; E 0.085 ± 0.061; W 0 ± 0.098
H37: L -0.26 ± 0.051; C -0.007 ± 0.061; D -0.217 ± 0.063; M -0.298 ± 0.069; E -0.038 ± 0.054; K -0.176 ± 0.068; W -0.44 ± 0.054; F -0.486 ± 0.092; G -0.127 ± 0.046; I -0.529 ± 0.16; Q -0.119 ± 0.065; Y -0.36 ± 0.12; R -0.242 ± 0.045; A -0.027 ± 0.051; P -0.194 ± 0.058; S -0.198 ± 0.063; N -0.231 ± 0.078; T -0.208 ± 0.064
S44: H -0.119 ± 0.067; N -0.038 ± 0.07; I -0.246 ± 0.074; W -0.274 ± 0.073; D 0.069 ± 0.063; F -0.263 ± 0.085; A 0.031 ± 0.048; E 0.086 ± 0.057; R -0.1 ± 0.05; P 0.034 ± 0.056; V -0.047 ± 0.052; M -0.138 ± 0.071; C -0.208 ± 0.06; T -0.028 ± 0.057; K -0.212 ± 0.061; L -0.179 ± 0.054; Q -0.038 ± 0.069
N36: W -0.299 ± 0.051; V -0.202 ± 0.052; Y -0.147 ± 0.089
S43: V -0.075 ± 0.052; G -0.022 ± 0.053; D -0.063 ± 0.093; E 0.083 ± 0.069; T -0.093 ± 0.054; M -0.13 ± 0.074; Y -0.439 ± 0.12; A 0.001 ± 0.056; F -0.415 ± 0.18; H -0.067 ± 0.12; N -0.042 ± 0.096; W -0.352 ± 0.066; I -0.272 ± 0.09; L -0.181 ± 0.056; K -0.145 ± 0.065; C -0.129 ± 0.063; Q 0.027 ± 0.067
A45: C -0.482 ± 0.1; T -0.143 ± 0.084; K -0.265 ± 0.36; S -0.074 ± 0.084; D 0.078 ± 0.16; V -0.091 ± 0.076; Q -0.21 ± 0.2; R -0.112 ± 0.094; N -0.549 ± 0.46; M -0.232 ± 0.099; P 0.015 ± 0.099; L -0.156 ± 0.17; G 0.023 ± 0.062
V39: T 0.054 ± 0.069; Y -0.184 ± 0.1; L -0.007 ± 0.053; A 0.079 ± 0.048; D 0.079 ± 0.08; N 0.057 ± 0.097; G 0.079 ± 0.05; H -0.023 ± 0.088; W -0.138 ± 0.052; R -0.064 ± 0.048; Q 0.008 ± 0.059; S 0.008 ± 0.055; F -0.103 ± 0.099; M 0.028 ± 0.072; C -0.079 ± 0.071; E 0.037 ± 0.053; P -0.005 ± 0.053; I -0.149 ± 0.24
T40: H -0.146 ± 0.069; F -0.317 ± 0.11; A -0.027 ± 0.064; K -0.112 ± 0.08; E -0.04 ± 0.066; W -0.287 ± 0.06; N 0.141 ± 0.087; Q -0.014 ± 0.066; D 0.039 ± 0.074; L -0.243 ± 0.054; V -0.023 ± 0.059; P 0.003 ± 0.053; S -0.025 ± 0.051; M -0.318 ± 0.097; I -0.265 ± 0.08; Y -0.191 ± 0.16; R -0.089 ± 0.043
M42: W -0.071 ± 0.048; A 0.12 ± 0.052; K 0.079 ± 0.06; S 0.06 ± 0.058; G 0.123 ± 0.045; N -0.059 ± 0.079; L -0.031 ± 0.051; V 0.001 ± 0.046; T 0.097 ± 0.064; P 0.087 ± 0.068; I -0.282 ± 0.081; F -0.034 ± 0.15; E 0.16 ± 0.061; Y -0.134 ± 0.1; H -0.524 ± 0.28; D 0.039 ± 0.087; Q 0.067 ± 0.068
T41: R -0.093 ± 0.045; K 0.007 ± 0.06; W -0.249 ± 0.053; Q -0.11 ± 0.086; E 0.071 ± 0.058; F -0.189 ± 0.084; I -0.158 ± 0.078; G 0.003 ± 0.043; A -0.111 ± 0.062; C -0.112 ± 0.066; H -0.526 ± 0.18; Y -0.29 ± 0.12; M -0.142 ± 0.083; D -0.026 ± 0.065; V -0.084 ± 0.046; P -0.059 ± 0.062; N -0.289 ± 0.16; L -0.149 ± 0.049; S -0.043 ± 0.056

Variants of: B2
Test: as above
Settings: Homo sapiens

Abundance fitness of substitutions, site by site:
R48: N 0.087 ± 0.061
K62: S -0.214 ± 0.046; M -0.038 ± 0.049
C11: P -1.17 ± 0.35; V -0.752 ± 0.087; L -0.895 ± 0.083; R -0.932 ± 0.086
C66: I -0.722 ± 0.17; T -0.751 ± 0.083
R5: W -0.126 ± 0.053; D -0.161 ± 0.23
